{
  "source": "patent US20030175364A1",
  "about": "“Process for binding carotenoids to proteins and the products thereof” (priority 2002, published 2003)",
  "molecules": {"B1": {"name": "Kunitz: soybean Kunitz proteinase inhibitor (protein, UniProt P01070 25-205, looked up)", "Trypsin inhibitor A": "DFVLDNEGNPLENGGTYYILSDITAFGGIRAAPTGNERCPLTVVQSRNELDKGIGTIISSPYRIRFIAEGHPLSLKFDSFAVIMLCVGIPTEWSVVEDLPEGPAVKIGENKDAMDGWFRLERVSDDEFNNYKLVFCPQQAEDDKCGDIGISIDHDDGTRRLVVSKNKPLVVQFQKLDKESL"}, "B2": {"name": "Chicken Serum Albumin: chicken albumin (protein, UniProt P19121 24-615, looked up)", "Albumin": "FARDAEHKSEIAHRYNDLKEETFKAVAMITFAQYLQRCSYEGLSKLVKDVVDLAQKCVANEDAPECSKPLPSIILDEICQVEKLRDSYGAMADCCSKADPERNECFLSFKVSQPDFVQPYQRPASDVICQEYQDNRVSFLGHFIYSVARRHPFLYAPAILSFAVDFEHALQSCCKESDVGACLDTKEIVMREKAKGVSVKQQYFCGILKQFGDRVFQARQLIYLSQKYPKAPFSEVSKFVHDSIGVHKECCEGDMVECMDDMARMMSNLCSQQDVFSGKIKDCCEKPIVERSQCIMEAEFDEKPADLPSLVEKYIEDKEVCKSFEAGHDAFMAEFVYEYSRRHPEFSIQLIMRIAKGYESLLEKCCKTDNPAECYANAQEQLNQHIKETQDVVKTNCDLLHDHGEADFLKSILIRYTKKMPQVPTDLLLETGKKMTTIGTKCCQLGEDRRMACSEGYLSIVIHDTCRKQETTPINDNVSQCCSQLYANRRPCFTAMGVDTKYVPPPFNPDMFSFDEKLCSAPAEEREVGQMKLLINLIKRKPQMTEEQIKTIADGFTAMVDKCCKQSDINTCFGEEGANLIVQSRATLGIGA"}},
  "assay": "Binding of lutein to selected proteins at ng scale (hexane extraction, absorbance at 280 and 446 nm)",
  "description": "The carotenoid used in this Example 3 was lutein in dry cake form (Kemin Foods, L.C., Des Moines, Iowa). The cake was dissolved in THF at a concentration of approximately 5.28 mM (3 mg lutein in 1 ml THF). Four hundred nanograms of a selected protein (bovine and chicken albumin, gamma-globulins, Kunitz inhibitor, Bowman-Birk inhibitor, whey, and soy protein isolates 873 and 891 from Archer Daniels Midland, DeKalb, Ill.) were added to 200 μl Tris buffer (1.74 g Trizma crystals and 0.42 g calcium chloride added to 250 ml de-ionized H2O, pH 8.74) together with 2 μl of the lutein/THF solution. These reaction solutions were prepared in microcentrifuge tubes (1.5 ml), mixed, and allowed to react at 4° C., overnight, and in the dark. In addition, all reactions were performed in the presence of an alternative metal ion selected from the group Mg^++, Mn^++, Fe^+++, K^+, and Ca^++(MgCl2 6H2O, MnCl24H2O, FeCl3 6H2O, KCl, and CaCl2) at 60 μM concentration.\nThe hexane wash, vortex and centrifuge procedure was repeated six times. The supernatant was extracted and combined from all six washes and used later to compare absorbance vs. aqueous phase.\nProtein and lutein content in the protein solutions and solvents used for extraction were determined by measuring the absorbance at 280 and 446 nm using a spectrophotometer.\nThe results are compiled and are reported in weight:weight or mol:mol (when available) ratios.",
  "data": [
    {"molecule": "Bovine Serum Albumin: bovine albumin", "values": [
      {"measurement": "Lutein/Protein Ratio mol/mol", "setting": "Ca^2+ 60 μM", "result": 506, "unit": "mol/mol"},
      {"measurement": "Lutein/Protein Ratio w/w", "setting": "Ca^2+ 60 μM", "result": 4.29, "unit": "w/w"},
      {"measurement": "Lutein/Protein Ratio mol/mol", "setting": "Fe^3+ 60 μM", "result": 365, "unit": "mol/mol"},
      {"measurement": "Lutein/Protein Ratio w/w", "setting": "Fe^3+ 60 μM", "result": 3.1, "unit": "w/w"},
      {"measurement": "Lutein/Protein Ratio mol/mol", "setting": "K^+ 60 μM", "result": 383, "unit": "mol/mol"},
      {"measurement": "Lutein/Protein Ratio w/w", "setting": "K^+ 60 μM", "result": 3.24, "unit": "w/w"},
      {"measurement": "Lutein/Protein Ratio mol/mol", "setting": "Mg^+ 60 μM", "result": 294, "unit": "mol/mol"},
      {"measurement": "Lutein/Protein Ratio w/w", "setting": "Mg^+ 60 μM", "result": 2.49, "unit": "w/w"},
      {"measurement": "Lutein/Protein Ratio mol/mol", "setting": "w/o metal ions", "result": 306, "unit": "mol/mol"},
      {"measurement": "Lutein/Protein Ratio w/w", "setting": "w/o metal ions", "result": 2.59, "unit": "w/w"}
    ]},
    {"molecule": "B1", "values": [
      {"measurement": "Lutein/Protein Ratio mol/mol", "setting": "Ca^2+ 60 μM", "result": 31, "unit": "mol/mol"},
      {"measurement": "Lutein/Protein Ratio w/w", "setting": "Ca^2+ 60 μM", "result": 0.78, "unit": "w/w"},
      {"measurement": "Lutein/Protein Ratio mol/mol", "setting": "Fe^3+ 60 μM", "result": 29, "unit": "mol/mol"},
      {"measurement": "Lutein/Protein Ratio w/w", "setting": "Fe^3+ 60 μM", "result": 0.74, "unit": "w/w"},
      {"measurement": "Lutein/Protein Ratio mol/mol", "setting": "K^+ 60 μM", "result": 24, "unit": "mol/mol"},
      {"measurement": "Lutein/Protein Ratio w/w", "setting": "K^+ 60 μM", "result": 0.6, "unit": "w/w"},
      {"measurement": "Lutein/Protein Ratio mol/mol", "setting": "Mg^+ 60 μM", "result": 29, "unit": "mol/mol"},
      {"measurement": "Lutein/Protein Ratio w/w", "setting": "Mg^+ 60 μM", "result": 0.74, "unit": "w/w"},
      {"measurement": "Lutein/Protein Ratio mol/mol", "setting": "w/o metal ions", "result": 46, "unit": "mol/mol"},
      {"measurement": "Lutein/Protein Ratio w/w", "setting": "w/o metal ions", "result": 1.17, "unit": "w/w"}
    ]},
    {"molecule": "B2", "values": [
      {"measurement": "Lutein/Protein Ratio mol/mol", "setting": "Ca^2+ 60 μM", "result": 67, "unit": "mol/mol"},
      {"measurement": "Lutein/Protein Ratio w/w", "setting": "Ca^2+ 60 μM", "result": 0.84, "unit": "w/w"},
      {"measurement": "Lutein/Protein Ratio mol/mol", "setting": "Fe^3+ 60 μM", "result": 71, "unit": "mol/mol"},
      {"measurement": "Lutein/Protein Ratio w/w", "setting": "Fe^3+ 60 μM", "result": 0.9, "unit": "w/w"},
      {"measurement": "Lutein/Protein Ratio mol/mol", "setting": "K^+ 60 μM", "result": 95, "unit": "mol/mol"},
      {"measurement": "Lutein/Protein Ratio w/w", "setting": "K^+ 60 μM", "result": 1.2, "unit": "w/w"},
      {"measurement": "Lutein/Protein Ratio mol/mol", "setting": "Mg^+ 60 μM", "result": "116? mol/mol"},
      {"measurement": "Lutein/Protein Ratio w/w", "setting": "Mg^+ 60 μM", "result": 1.16, "unit": "w/w"},
      {"measurement": "Lutein/Protein Ratio mol/mol", "setting": "w/o metal ions", "result": 105, "unit": "mol/mol"},
      {"measurement": "Lutein/Protein Ratio w/w", "setting": "w/o metal ions", "result": 1.33, "unit": "w/w"}
    ]}
  ]
}
